The text below walks through data of PMC7473855, “An alpaca nanobody neutralizes SARS-CoV-2 by blocking receptor interaction” (Nature Communications, 2020).

“And” between values parts separate entries of the source, which are not always exact repeats. Equal entries are not always repeated.

Assay [1] concerns the target T1, SARS-CoV-2 spike receptor-binding domain (RBD) (SARS-CoV-2, UniProt P0DTC2 319-541).
T1 construct: also called monomeric RBD
Kind of assay: ITC. Particulars: both partners purified.

In assay [2] the target is T1, SARS-CoV-2 spike receptor-binding …. As to the kind of experiment: BLI. The note with it: both partners purified.

B1: Ty1 nanobody (VHH)
VHH: QVQLVETGGGLVQPGGSLRLSCAASGFTFSSVYMNWVRQAPGKGPEWVSRISPNSGNIGYTDSVKGRFTISRDNAKNTLYLQMNNLKPEDTALYYCAIGLNLSSSSVRGQGTQVTVSS
In the case of B1, in assay [1], the Kd came to 9 nM and the dH is ~-10 kcal/mol.

B2: Ty1 nanobody, biotinylated on the C-terminus (VHH)
VHH: QVQLVETGGGLVQPGGSLRLSCAASGFTFSSVYMNWVRQAPGKGPEWVSRISPNSGNIGYTDSVKGRFTISRDNAKNTLYLQMNNLKPEDTALYYCAIGLNLSSSSVRGQGTQVTVSS
modifications: biotin on the C-terminus (GGGK-biotin joined by Sortase A)
notes: not shown: Sortase recognition site (LPETG), C-terminal, kept
As for B2, the Kd in assay [2] was 8 nM and 13 nM.
